Measured values as given in PMC2034474.

System: HIS-GST-cERCC1 (ERCC1 central domain) (Homo sapiens)
Assay: EMSA

“b10 (bubble10, dsDNA with 10 unpaired bases)” gave a Kd of 2.5 µM.
